The results in this text go back to patent US20250320281A1.

For assay [1], the target named is HIV-1 APV-17 envelope glycoprotein (Env) on pseudovirus (HIV-1). Kind of assay: cell-based or functional assay.
Assay [2] concerns the target HIV-1 Env of pseudovirus 92TH021 (clade CRF01_AE) (HIV-1). Kind of assay: cell-based or functional assay.
In assay [3] the target is HIV-1 Env of pseudovirus MGRM-AE-005 (clade CRF01_AE) (HIV-1). Nature of the assay: cell-based or functional assay.
Assay [4] has as its target HIV-1 envelope glycoprotein (Env) of isolate 92RW009, clade A (HIV-1). Nature of the assay: cell-based or functional assay.
Assay [5] has as its target HIV-1 Env of isolate MGRM-F1-006 (pseudovirus) (HIV-1). Nature of the assay: cell-based or functional assay.
Assay [6] deals with JR-FL gp120 ΔV1/ΔV2 (HIV-1). Kind of assay: ELISA, antigen-coated wells.
In assay [7] the target is HIV-1 Env of isolate 92RW008 (subtype A) (HIV-1). Nature of the assay: cell-based or functional assay.
Assay [8] deals with HIV-1 Env of isolate 92UG031 (subtype A) (HIV-1). Kind of assay: cell-based or functional assay.
In assay [9] the target is HIV-1 Env of isolate 92UG037 (subtype A) (HIV-1). Kind of assay: cell-based or functional assay.
The target in assay [10] is HIV-1 Env of isolate 92WR020 (subtype A) (HIV-1). Nature of the assay: cell-based or functional assay.
Assay [11] addresses HIV-1 Env of isolate 92WR021 (subtype A) (HIV-1). Nature of the assay: cell-based or functional assay.
Assay [12] concerns the target HIV-1 Env of isolate 92WR024 (subtype A) (HIV-1). Nature of the assay: cell-based or functional assay.
Assay [13] has as its target HIV-1 Env of isolate 93UG077 (subtype A) (HIV-1). Nature of the assay: cell-based or functional assay.
For assay [14], the target named is HIV-1 Env of isolate 93WR029 (subtype A) (HIV-1). Nature of the assay: cell-based or functional assay.
Assay [15] has as its target HIV-1 Env of isolate 94 KE 105 (subtype AC) (HIV-1). Nature of the assay: cell-based or functional assay.
Assay [16] has as its target HIV-1 Env of isolate 94UG103 (subtype A) (HIV-1). Nature of the assay: cell-based or functional assay.
Assay [17] addresses HIV-1 Env of isolate MGRM-G-017 (HIV-1). Nature of the assay: cell-based or functional assay.
For assay [18], the target named is HIV-1 envelope glycoprotein (Env) of isolate 93TH305 (HIV-1). Nature of the assay: cell-based or functional assay.
For assay [19], the target named is HIV-1 envelope glycoprotein (Env) of isolate APV_13 (HIV-1). Nature of the assay: cell-based or functional assay.
The target of assay [20] is HIV-1 envelope glycoprotein (Env) of isolate APV_17 (HIV-1). Nature of the assay: cell-based or functional assay.
The target of assay [21] is HIV-1 envelope glycoprotein (Env) of isolate APV_6 (HIV-1). Kind of assay: cell-based or functional assay.
For assay [22], the target named is HIV-1 envelope glycoprotein (Env) of isolate CAAN.A2 (HIV-1). Kind of assay: cell-based or functional assay.
Assay [23] has as its target HIV-1 envelope glycoprotein (Env) of isolate JR-FL (HIV-1). Nature of the assay: cell-based or functional assay.
For assay [24], the target named is HIV-1 envelope glycoprotein (Env) of isolate MGRM-Chronic-B-001 (HIV-1). Kind of assay: cell-based or functional assay.
Assay [25] addresses HIV-1 envelope glycoprotein (Env) of isolate MGRM-Chronic-B-002 (HIV-1). Nature of the assay: cell-based or functional assay.
Assay [26] concerns the target HIV-1 envelope glycoprotein (Env) of isolate MGRM-Chronic-B-003 (HIV-1). Nature of the assay: cell-based or functional assay.
The target of assay [27] is HIV-1 envelope glycoprotein (Env) of isolate MGRM-Chronic-B-004 (HIV-1). Kind of assay: cell-based or functional assay.
Assay [28] concerns the target HIV-1 envelope glycoprotein (Env) of isolate MGRM-Chronic-B-008 (HIV-1). Kind of assay: cell-based or functional assay.
Assay [29] addresses HIV-1 Env of isolate 92UG114 (HIV-1). Nature of the assay: cell-based or functional assay.
Assay [30] deals with HIV-1 Env of isolate MGRM-Chronic-B-010 (subtype B) (HIV-1). Kind of assay: cell-based or functional assay.

Sequence of 4980_N08 (PGT-143) (antibody) (VH): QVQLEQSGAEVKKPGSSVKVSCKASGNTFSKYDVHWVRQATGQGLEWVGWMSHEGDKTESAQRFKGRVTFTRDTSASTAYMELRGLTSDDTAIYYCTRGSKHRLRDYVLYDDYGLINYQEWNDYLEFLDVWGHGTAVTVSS
Sequence of 4980_N08 (PGT-143) (antibody) (VL): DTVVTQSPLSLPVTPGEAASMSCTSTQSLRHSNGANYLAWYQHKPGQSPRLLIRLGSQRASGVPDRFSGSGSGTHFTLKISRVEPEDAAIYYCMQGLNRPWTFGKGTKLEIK
Sequence of 4995_E20 (PGT-142) (antibody) (VH): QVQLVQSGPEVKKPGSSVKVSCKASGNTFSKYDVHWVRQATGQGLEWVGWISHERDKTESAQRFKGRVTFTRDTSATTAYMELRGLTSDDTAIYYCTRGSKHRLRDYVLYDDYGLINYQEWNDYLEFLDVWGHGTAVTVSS
Sequence of 4995_E20 (PGT-142) (antibody) (VL): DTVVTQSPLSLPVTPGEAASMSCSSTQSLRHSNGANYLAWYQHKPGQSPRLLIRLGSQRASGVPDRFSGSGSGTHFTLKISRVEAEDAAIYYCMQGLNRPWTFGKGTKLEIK
Sequence of 4993_K13 (PGT-141) (antibody) (VH): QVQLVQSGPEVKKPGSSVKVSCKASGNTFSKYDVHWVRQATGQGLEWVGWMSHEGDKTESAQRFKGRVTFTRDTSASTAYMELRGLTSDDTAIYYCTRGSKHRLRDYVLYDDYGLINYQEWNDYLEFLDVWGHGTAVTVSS
Sequence of 4970_K22 (PGT-144) (antibody) (VH): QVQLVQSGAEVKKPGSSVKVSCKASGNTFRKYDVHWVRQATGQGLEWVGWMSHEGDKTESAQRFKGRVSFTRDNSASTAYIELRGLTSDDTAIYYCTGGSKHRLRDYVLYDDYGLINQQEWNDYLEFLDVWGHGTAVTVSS
Sequence of 4970_K22 (PGT-144) (antibody) (VL): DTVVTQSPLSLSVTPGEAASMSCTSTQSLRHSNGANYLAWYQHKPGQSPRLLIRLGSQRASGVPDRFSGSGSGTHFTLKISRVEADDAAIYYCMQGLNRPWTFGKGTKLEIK

4E10 (antibody): the IC50, pseudovirus neutralization in assay [1] came out at 5.1 µg/mL. Besides, the IC50 in assay [2] is 1.17 µg/mL; in assay [3], 0.47 µg/mL. Moreover, the IC50 (µg/ml), pseudovirus neutralization in assay [4] is > 50 µg/mL.

4838_L06 (PGT-121) (antibody) came in with an IC50, pseudovirus neutralization in [5] of 5.33 µg/mL. In [6], this substance displayed a concentration giving a half-maximal response (EC50) of 0.2 µg/mL.

As for 4970_K22 (PGT-144) (antibody), the IC50 (µg/mL), pseudovirus neutralization was > 50 µg/mL in [7]; 2.17 µg/mL in [8]; 8.24 µg/mL in assay [9]; > 50 µg/mL in [10]; > 50 µg/mL in [11]; 16.3 µg/mL in assay [12]. For the same substance, the IC50 (µg/mL), pseudovirus neutralization in [13] was > 50 µg/mL; in assay [14], 4.39 µg/mL; in [15], 0.29 µg/mL; in assay [16] it was > 50 µg/mL; in assay [17], 9.97 µg/mL; in assay [18] it was > 50 µg/mL. Moreover, the IC50 (µg/mL), pseudovirus neutralization is > 50 µg/mL in assay [19]; 10.3 µg/mL in [20]; > 50 µg/mL in [21]; > 50 µg/mL in assay [22]; > 50 µg/mL in assay [23]; > 50 µg/mL in [24]. The IC50 (µg/mL), pseudovirus neutralization was > 50 µg/mL in assay [25], 7.41 µg/mL in [26], 9.41 µg/mL in [27] and > 50 µg/mL in [28].

As for 4980_N08 (PGT-143) (antibody), the IC50 (µg/mL), pseudovirus neutralization in [7] is 0.385 µg/mL; in [8] it was 0.095 µg/mL; in [9], 0.854 µg/mL; in assay [10], > 50 µg/mL; in assay [11] it was > 50 µg/mL; in assay [12], 0.122 µg/mL. For the same substance, the IC50 (µg/mL), pseudovirus neutralization was > 50 µg/mL in assay [13]; 0.053 µg/mL in assay [14]; 0.368 µg/mL in assay [15]; > 50 µg/mL in assay [16]; 0.107 µg/mL in assay [17]; 17.3 µg/mL in [18]. In addition, the IC50 (µg/mL), pseudovirus neutralization in assay [19] was > 50 µg/mL; in assay [20], 1.11 µg/mL; in assay [21] it was 14 µg/mL; in assay [22] it was > 50 µg/mL; in assay [23], > 50 µg/mL; in [24], > 50 µg/mL. Besides, the IC50 (µg/mL), pseudovirus neutralization was > 50 µg/mL in assay [25], 0.854 µg/mL in assay [26], 0.395 µg/mL in assay [27] and > 50 µg/mL in assay [28].

For 4993_K13 (PGT-141) (antibody), the IC50 (µg/mL), pseudovirus neutralization was 0.579 µg/mL in assay [7]; 0.093 µg/mL in assay [8]; 1.28 µg/mL in assay [9]; > 50 µg/mL in assay [10]; > 50 µg/mL in assay [11]; 0.175 µg/mL in assay [12]. Besides, the IC50 (µg/mL), pseudovirus neutralization is > 50 µg/mL in [13]; 0.019 µg/mL in assay [14]; 0.204 µg/mL in [15]; > 50 µg/mL in assay [16]; 0.164 µg/mL in assay [17]; > 50 µg/mL in [18]. The IC50 (µg/mL), pseudovirus neutralization is > 50 µg/mL in [19]; 0.59 µg/mL in assay [20]; 14.2 µg/mL in [21]; > 50 µg/mL in assay [22]; > 50 µg/mL in assay [23]; > 50 µg/mL in assay [24]. Further, the IC50 (µg/mL), pseudovirus neutralization in assay [25] is > 50 µg/mL; in assay [26], 0.4 µg/mL; in assay [27], 0.586 µg/mL; in [28], > 50 µg/mL.

As to 4995_E20 (PGT-142) (antibody), the IC50 (µg/mL), pseudovirus neutralization was 0.447 µg/mL in assay [7]; 0.05 µg/mL in [8]; 0.557 µg/mL in [9]; 31.5 µg/mL in [10]; > 50 µg/mL in [11]; 0.069 µg/mL in assay [12]. Besides, the IC50 (µg/mL), pseudovirus neutralization in assay [13] was > 50 µg/mL; in assay [14] it was 0.014 µg/mL; in assay [15], 0.19 µg/mL; in assay [16] it was > 50 µg/mL; in assay [17] it was 0.125 µg/mL; in assay [18] it was 5.86 µg/mL. The IC50 (µg/mL), pseudovirus neutralization in assay [19] was > 50 µg/mL; in assay [20], 0.628 µg/mL; in assay [21] it was 4.72 µg/mL; in [22], > 50 µg/mL; in assay [23], > 50 µg/mL; in assay [24] it was > 50 µg/mL. In addition, the IC50 (µg/mL), pseudovirus neutralization is > 50 µg/mL in assay [25], 0.484 µg/mL in assay [26], 0.172 µg/mL in assay [27] and > 50 µg/mL in assay [28].

As to 5114_A19 (PGT-128) (antibody), in assay [29], the IC50 (µg/mL), pseudovirus neutralization is 0.083 µg/mL. Moreover, in assay [30], the IC50 neutralization worked out at 0.004 µg/mL. In assay [6], this substance showed a concentration giving a half-maximal response (EC50) of 0.3 µg/mL.

For 5136_H01 (PGT-131) (antibody), the IC50 (µg/mL), pseudovirus neutralization in [29] is > 50 µg/mL. In addition, the IC50 neutralization in assay [30] was 0.016 µg/mL.

Take 5147_N06 (PGT-130) (antibody): the IC50 (µg/mL), pseudovirus neutralization in [29] is > 50 µg/mL. The substance further yielded an IC50 neutralization in assay [30] of 0.006 µg/mL.

Turning to PGV04 (antibody), the IC50 (µg/mL), pseudovirus neutralization in [17] came out at 0.065 µg/mL.

For VRC01 (antibody), the IC50 (µg/mL), pseudovirus neutralization in [7] was determined as 0.037 µg/mL; in assay [8], 0.469 µg/mL; in assay [9] it was 0.245 µg/mL; in assay [10], 0.13 µg/mL; in assay [11], 0.066 µg/mL; in assay [12] it was 0.327 µg/mL. The IC50 (µg/mL), pseudovirus neutralization worked out at 0.097 µg/mL in assay [13]; 1.57 µg/mL in [14]; 0.499 µg/mL in assay [15]; 0.285 µg/mL in [16]; 0.124 µg/mL in assay [17]; 0.243 µg/mL in assay [18]. In addition, the IC50 (µg/mL), pseudovirus neutralization in assay [19] came out at 0.657 µg/mL; in [20] it was 0.477 µg/mL; in assay [21] it was 1.81 µg/mL; in assay [22], 0.722 µg/mL; in [23] it was 0.034 µg/mL; in assay [24], 0.066 µg/mL. For the same substance, the IC50 (µg/mL), pseudovirus neutralization in assay [25] came out at 0.117 µg/mL; in [26], 0.1 µg/mL; in assay [27], 0.055 µg/mL; in [28] it was 0.155 µg/mL.
